Laboratory results as given in patent US20250026792A1, “SELF-ASSEMBLING PEPTIDES WITH HYALURONIC ACID BINDING DOMAINS AND METHODS OF USE THEREOF” (Northwestern University, priority 2022, published 2025).
The star is where a group is joined. Biotin = O=C1N[C@H]2[C@H](CS[C@H]2CCCCC(=O)*)N1

T1: elastin (bovine) (bovine, UniProt P04985 27-747, limits assumed)
T1 construct: Coated and dried on plates at 10 ug/cm2
T1 sequence (looked up): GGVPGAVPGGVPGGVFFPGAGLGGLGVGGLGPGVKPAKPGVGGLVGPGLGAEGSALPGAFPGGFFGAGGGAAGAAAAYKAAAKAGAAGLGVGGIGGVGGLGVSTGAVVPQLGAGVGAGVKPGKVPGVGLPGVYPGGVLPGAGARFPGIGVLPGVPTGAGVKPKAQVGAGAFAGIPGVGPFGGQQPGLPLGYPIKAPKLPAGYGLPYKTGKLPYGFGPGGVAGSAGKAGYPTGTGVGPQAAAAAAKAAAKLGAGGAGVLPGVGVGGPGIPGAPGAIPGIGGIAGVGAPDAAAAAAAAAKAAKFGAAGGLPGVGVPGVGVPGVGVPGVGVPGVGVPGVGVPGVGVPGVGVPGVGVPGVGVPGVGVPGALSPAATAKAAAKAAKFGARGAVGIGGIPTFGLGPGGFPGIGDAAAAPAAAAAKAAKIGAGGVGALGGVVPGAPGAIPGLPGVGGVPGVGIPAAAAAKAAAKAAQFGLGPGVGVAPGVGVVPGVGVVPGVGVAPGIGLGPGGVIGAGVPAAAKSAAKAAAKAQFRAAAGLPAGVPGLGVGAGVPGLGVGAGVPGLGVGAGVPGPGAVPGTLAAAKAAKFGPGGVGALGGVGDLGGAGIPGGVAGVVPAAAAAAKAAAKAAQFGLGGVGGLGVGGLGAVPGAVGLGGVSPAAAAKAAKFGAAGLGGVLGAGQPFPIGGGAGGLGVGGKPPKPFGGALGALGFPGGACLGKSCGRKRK

T2: collagen type III (human) (human, UniProt P02461 154-1221)
T2 construct: III (human)'; Coated and dried on plates at 10 ug/cm2; also called collagen III
T2 sequence (looked up): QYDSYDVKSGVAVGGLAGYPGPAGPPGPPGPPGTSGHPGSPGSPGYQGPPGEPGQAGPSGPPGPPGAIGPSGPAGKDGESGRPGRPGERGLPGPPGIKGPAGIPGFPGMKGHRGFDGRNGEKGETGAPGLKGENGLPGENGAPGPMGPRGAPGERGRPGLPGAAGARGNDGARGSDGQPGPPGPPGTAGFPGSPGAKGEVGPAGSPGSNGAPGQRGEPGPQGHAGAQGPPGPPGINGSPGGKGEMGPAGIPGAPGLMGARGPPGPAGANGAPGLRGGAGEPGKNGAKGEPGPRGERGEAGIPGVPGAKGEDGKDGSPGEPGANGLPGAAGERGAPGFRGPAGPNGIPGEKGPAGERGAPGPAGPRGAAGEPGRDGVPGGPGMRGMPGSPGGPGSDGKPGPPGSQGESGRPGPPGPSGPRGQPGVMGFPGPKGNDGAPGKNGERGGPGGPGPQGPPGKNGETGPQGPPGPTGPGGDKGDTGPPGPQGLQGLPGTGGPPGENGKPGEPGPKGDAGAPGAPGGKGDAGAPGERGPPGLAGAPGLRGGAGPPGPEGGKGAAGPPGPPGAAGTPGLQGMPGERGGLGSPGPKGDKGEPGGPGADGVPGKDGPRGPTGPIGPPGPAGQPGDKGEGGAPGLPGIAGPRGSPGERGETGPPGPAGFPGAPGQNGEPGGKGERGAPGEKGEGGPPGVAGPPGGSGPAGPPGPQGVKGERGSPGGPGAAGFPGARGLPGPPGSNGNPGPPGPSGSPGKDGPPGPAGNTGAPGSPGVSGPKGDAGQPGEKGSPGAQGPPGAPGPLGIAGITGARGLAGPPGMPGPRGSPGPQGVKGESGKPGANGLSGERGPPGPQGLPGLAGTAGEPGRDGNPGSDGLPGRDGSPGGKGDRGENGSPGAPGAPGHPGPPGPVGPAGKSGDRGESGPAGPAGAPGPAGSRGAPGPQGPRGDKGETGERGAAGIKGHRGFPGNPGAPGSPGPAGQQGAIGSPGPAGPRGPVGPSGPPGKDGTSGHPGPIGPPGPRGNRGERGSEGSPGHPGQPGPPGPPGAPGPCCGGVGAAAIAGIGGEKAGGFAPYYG


How the values were obtained:
Experiment in all cases: plate assay: biotinylated peptide on dried ECM coating (10 ug/cm2), streptavidin-488 fluorescence
collagen type IV (mouse) = target: T3, collagen type IV (mouse) (mouse, UniProt P02463 28-1669; P08122 26-1707)
T3 construct: IV (mouse)'; Coated and dried on plates at 10 ug/cm2; also called collagen IV
Procedure: (§1) Peptides were incubated 24 hours at 37° C. on collagens I-IV, elastin, hyaluronic acid, and Geltrex. Coatings (10 pig/cm²) were previously dried overnight in milli-Q water. Overall significance was assessed using analysis of variance, with Tukey's multiple comparison post-hoc analysis between ECM groups where n=4.
(§2) N-termini biotinylated peptides were added to coated plates at 0, 1, 2.5, 5 and 10 mg/ml overnight at 37° C. in phosphate buffered saline (PBS), pH 7.4, after which the plates were washed three times with PBS. Fluorescent streptavidin-488 (4 μg/mL) was added to each well and incubated at 37° C. temperature for 24 hours, then thoroughly washed with PBS. The plates were read with a fluorescence microplate reader for fluorescence intensity (Ex 490 nm, Em 525 nm). All data were normalized to the background fluorescence intensity of Streptavidin-488.

elastin (bovine) = target: T1, elastin (bovine)
Procedure: as §1, §2

collagen type I (rat) = target: T4, collagen type I (rat) (rat, UniProt P02454 152-1207; P02466 86-1125)
T4 construct: Coated and dried on 96-well plates at 10 ug/cm2; also called collagen I
Procedure: as §1, §2

[1] = target: T2, collagen type III (human)
Procedure: as §1, §2

T4 sequence (P02454 152-1207, chain 1 of 2): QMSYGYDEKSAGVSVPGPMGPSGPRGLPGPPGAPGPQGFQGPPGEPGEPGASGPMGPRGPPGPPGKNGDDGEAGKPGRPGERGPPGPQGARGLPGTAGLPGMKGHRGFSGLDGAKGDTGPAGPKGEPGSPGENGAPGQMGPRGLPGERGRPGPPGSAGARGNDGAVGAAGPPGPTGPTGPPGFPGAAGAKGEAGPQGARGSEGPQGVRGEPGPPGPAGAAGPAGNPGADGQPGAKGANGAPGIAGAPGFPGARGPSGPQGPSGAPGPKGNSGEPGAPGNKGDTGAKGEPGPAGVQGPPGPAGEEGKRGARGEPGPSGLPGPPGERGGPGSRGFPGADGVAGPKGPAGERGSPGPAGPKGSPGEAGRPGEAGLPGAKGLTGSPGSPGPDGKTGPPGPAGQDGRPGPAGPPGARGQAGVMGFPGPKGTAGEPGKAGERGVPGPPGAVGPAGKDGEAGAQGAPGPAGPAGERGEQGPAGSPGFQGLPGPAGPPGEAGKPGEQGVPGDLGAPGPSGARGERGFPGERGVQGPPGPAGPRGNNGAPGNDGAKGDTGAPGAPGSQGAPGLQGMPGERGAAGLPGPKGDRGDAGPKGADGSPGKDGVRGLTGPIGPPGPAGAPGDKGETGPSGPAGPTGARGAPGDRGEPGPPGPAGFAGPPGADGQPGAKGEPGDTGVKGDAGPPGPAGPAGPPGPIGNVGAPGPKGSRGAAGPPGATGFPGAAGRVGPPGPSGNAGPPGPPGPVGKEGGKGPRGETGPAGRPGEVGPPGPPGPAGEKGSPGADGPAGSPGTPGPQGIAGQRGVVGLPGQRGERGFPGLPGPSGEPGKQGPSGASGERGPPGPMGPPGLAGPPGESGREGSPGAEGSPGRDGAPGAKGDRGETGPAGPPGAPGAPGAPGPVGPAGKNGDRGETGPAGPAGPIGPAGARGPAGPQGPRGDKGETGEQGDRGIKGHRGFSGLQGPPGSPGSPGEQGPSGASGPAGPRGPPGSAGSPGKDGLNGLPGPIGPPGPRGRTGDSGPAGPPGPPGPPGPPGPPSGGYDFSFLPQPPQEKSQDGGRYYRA
T4 sequence (P02466 86-1125, chain 2 of 2): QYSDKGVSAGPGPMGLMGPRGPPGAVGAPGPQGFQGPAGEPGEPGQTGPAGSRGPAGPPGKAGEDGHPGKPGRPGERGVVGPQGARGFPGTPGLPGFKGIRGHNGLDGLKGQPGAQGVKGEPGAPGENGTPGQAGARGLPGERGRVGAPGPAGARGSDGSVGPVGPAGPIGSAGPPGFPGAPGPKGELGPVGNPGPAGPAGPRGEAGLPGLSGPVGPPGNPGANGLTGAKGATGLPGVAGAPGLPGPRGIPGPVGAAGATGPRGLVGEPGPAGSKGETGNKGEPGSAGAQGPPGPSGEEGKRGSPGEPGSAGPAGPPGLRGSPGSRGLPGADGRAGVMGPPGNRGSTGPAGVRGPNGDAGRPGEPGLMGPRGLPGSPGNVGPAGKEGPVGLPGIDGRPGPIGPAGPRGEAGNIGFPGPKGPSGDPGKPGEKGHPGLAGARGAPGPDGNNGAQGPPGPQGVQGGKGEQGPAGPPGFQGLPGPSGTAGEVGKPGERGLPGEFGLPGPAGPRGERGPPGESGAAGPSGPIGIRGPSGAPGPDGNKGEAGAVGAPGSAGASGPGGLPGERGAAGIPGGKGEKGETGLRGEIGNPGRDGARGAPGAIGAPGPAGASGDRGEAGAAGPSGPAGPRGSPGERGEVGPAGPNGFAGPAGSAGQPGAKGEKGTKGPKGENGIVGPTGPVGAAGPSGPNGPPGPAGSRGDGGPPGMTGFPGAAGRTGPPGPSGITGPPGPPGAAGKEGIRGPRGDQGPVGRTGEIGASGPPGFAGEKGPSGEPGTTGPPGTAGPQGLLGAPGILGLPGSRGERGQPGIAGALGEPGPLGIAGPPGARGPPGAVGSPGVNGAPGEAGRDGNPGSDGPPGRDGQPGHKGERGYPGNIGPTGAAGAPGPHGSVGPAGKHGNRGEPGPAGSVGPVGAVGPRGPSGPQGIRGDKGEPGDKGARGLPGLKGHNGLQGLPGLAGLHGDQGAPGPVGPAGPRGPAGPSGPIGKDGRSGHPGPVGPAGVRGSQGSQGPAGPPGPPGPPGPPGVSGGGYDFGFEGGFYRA

Row | binding result (collagen type IV (mouse)) | binding result (elastin (bovine)) | binding result (collagen type I (rat)) | binding result [1] | Binder
1 | no binding (tested: 5.0 mg/ml) | no binding (tested: 5.0 mg/ml) | no binding (tested: 5.0 mg/ml) | no binding (tested: 5.0 mg/ml) | Biotin-TQLRNKYTFLARARNALAVRTKQNIKS-OH (SMILES CC[C@H](C)[C@H](NC(=O)[C@H](CC(N)=O)NC(=O)[C@H](CCC(N)=O)NC(=O)[C@H](CCCCN)NC(=O)[C@@H](NC(=O)[C@H](CCCNC(=N)N)NC(=O)[C@@H](NC(=O)[C@H](C)NC(=O)[C@H](CC(C)C)NC(=O)[C@H](C)NC(=O)[C@H](CC(N)=O)NC(=O)[C@H](CCCNC(=N)N)NC(=O)[C@H](C)NC(=O)[C@H](CCCNC(=N)N)NC(=O)[C@H](C)NC(=O)[C@H](CC(C)C)NC(=O)[C@H](Cc1ccccc1)NC(=O)[C@@H](NC(=O)[C@H](Cc1ccc(O)cc1)NC(=O)[C@H](CCCCN)NC(=O)[C@H](CC(N)=O)NC(=O)[C@H](CCCNC(=N)N)NC(=O)[C@H](CC(C)C)NC(=O)[C@H](CCC(N)=O)NC(=O)[C@@H](NC(=O)CCCC[C@@H]1SC[C@@H]2NC(=O)N[C@@H]21)[C@@H](C)O)[C@@H](C)O)C(C)C)[C@@H](C)O)C(=O)N[C@@H](CCCCN)C(=O)N[C@@H](CO)C(=O)O, Designed from the 42 residue peptide BH-P; biotinylated synthetic peptide) [Peptide BHP3]
2 | no binding (tested: 5.0 mg/ml) | no binding (tested: 5.0 mg/ml) | no binding (tested: 5.0 mg/ml) | no binding (tested: 5.0 mg/ml) | Biotin-KTKATVLIKNKQKSKNALKQKIVLLSK-OH (SMILES CC[C@H](C)[C@H](NC(=O)[C@H](CC(C)C)NC(=O)[C@@H](NC(=O)[C@@H](NC(=O)[C@H](C)NC(=O)[C@H](CCCCN)NC(=O)[C@@H](NC(=O)[C@H](CCCCN)NC(=O)CCCC[C@@H]1SC[C@@H]2NC(=O)N[C@@H]21)[C@@H](C)O)[C@@H](C)O)C(C)C)C(=O)N[C@@H](CCCCN)C(=O)N[C@@H](CC(N)=O)C(=O)N[C@@H](CCCCN)C(=O)N[C@@H](CCC(N)=O)C(=O)N[C@@H](CCCCN)C(=O)N[C@@H](CO)C(=O)N[C@@H](CCCCN)C(=O)N[C@@H](CC(N)=O)C(=O)N[C@@H](C)C(=O)N[C@@H](CC(C)C)C(=O)N[C@@H](CCCCN)C(=O)N[C@@H](CCC(N)=O)C(=O)N[C@@H](CCCCN)C(=O)N[C@H](C(=O)N[C@H](C(=O)N[C@@H](CC(C)C)C(=O)N[C@@H](CC(C)C)C(=O)N[C@@H](CO)C(=O)N[C@@H](CCCCN)C(=O)O)C(C)C)[C@@H](C)CC, De novo designed 27-residue peptide, custom synthesized; the biotinylated peptides are used in every experiment; Self-assembles at higher concentrations) [Peptide 17x-3]
